These results are taken from the DeepSol protein solubility set.

The nature of the data set: soluble on expression in E. coli; label from the status in PepcDB or PDB records.
Take “MMSKIFDLVVIGAGSGGLEAAWNAATLYKKRVAVIDVQMVHGPPFFSALGGTCVNVGCVPKKLMVTGAQYMEHLRESAGFGWEFDRTTLRAEWKNLIAVKDEAVLNINKSYDEMFRDTEGLEFFLGWGSLESKNVVNVRESADPASAVKERLETEHILLASGSWPHMPNIPGIEHCISSNEAFYLPEPPRRVLTVGGGFISVEFAGIFNAYKPKDGQVTLCYRGEMILRGFDHTLREELTKQLTANGIQILTKENPAKVELNADGSKSVTFESGKKMDFDLVMMAIGRSPRTKDLQLQNAGVMIKNGGVQVDEYSRTNVSNIYAIGDVTNRVMLTPVAINEAAALVDTVFGTTPRKTDHTRVASAVFSIPPIGTCGLIEEVASKRYEVVAVYLSSFTPLMHKVSGSKYKTFVAKIITNHSDGTVLGVHLLGDNAPEIIQGIGICLKLNAKISDFYNTIGVHPTSAEELCSMRTPSYYYVKGEKMEKPSEASL”: the “soluble on expression in E. coli” value was “soluble”.

“MSEEIISKKPSKPQASRKGKRAWRKNIDIQEIEQNLQDKRDEEIVLGKEVTDDFVIDDTPSSKSGKLPKKLKTKEILTNKSKIPALTNQRHQKKGENTIQGVKKTDLLRLIQLNGGKFKSEDKYVNRLEQDGIVNGSSQDLWDDTDNNEKKKIPDFMKSTAEVTKASVVPKTLKVNPIKITSNELTDKKIHAGKSYNPSLESWKELINQEYDIEYKRELTRQQIEEHRNKIKELMITLDDNMLSDSDDDEDDEDNDKVEEEEQLNANGEKDYSLSINKPNKIKIKTKTKRNKELKHKERVKLEQEIKDLKKQLKDLSNLDEILEKQAVKDQSQPNEKKRKRREKLFKYSLVETPLEVKLSDELSGNLKNLKPEGNLYYDQMLSLQSSGKIESRVPVNKKRKYTKKITEKWTYKDFK”: the “soluble on expression in E. coli” value is on record as “not soluble”. With “MNNNENQTLISGGTVVTPTTEIEKGTVAFSNGKIVSVEAESHDNPDIDATGKYVLPGLVDLHGDDIERHLFPRAEERVDTTIALDRCDIANASAGVTTKYHAISFEDVPDDNRSIELARRLAEQIRNFNYETGARVDNRLHMRCELTNEASVDAVSEEIKSGGDLVSLVTHVPGTGQFTGENTLAQRYDRSDGELETGLQSLKTRRSGVPEAELLARAREVTELASNRNMTVASHDDETVASVDNAAAIGVDISEYPLSHRVAQRATELNLTVAMGAPNVVRGGSLWDGPDASQAIKDGVVDILCSDFRPQSLLSSVFIENDEPLKDRVFRVSTAPAAAAGLYDRGRLECGARADIIIVDPDPSPSIARTYVAGDQVYCSA” the entry was “not soluble”.

As for “MRYHGGLLLGAFDDDGKIIGMSFGYPGFRNGKLYLYSHMAGVVENKKYSNVGYSLKMKQRDLAASMGYDLIAWTFDPFNPLNAYFNISKLGAITRTYIKNFYGVMNDGINRGMRTDRVVAEWWINLQIDRNCEIIDFLNDVDRYSEISTIHESSCLGFYVPPDISYFHKYPDLGSKLKDAAFEVFNALFSKGYAIVAYKRGKSNYFVFKRIENLGKRIFDPIVK”, the “soluble on expression in E. coli” value is on record as “not soluble”. With “MSLDVNYVPQNTSDAPAIPSAALQQLTWTPVDQSKTQTTQLATGGQQLNVPGISGPVAAYSVPANIGELTLTLTSEVNKQTSVFAPNVLILDQNMTPSAFFPSSYFTYQEPGVMSADRLEGVMRLTPALGQQKLYVLVFTTEKDLQQTTQLLDPAKAYAKGVGNSIPDIPDPVARHTTDGLLKLKVKTNSSSSVLVGPLFGSSAPAPVTVGNTAAPAVAAPAPAPVKKSEPMLNDTESYFNTAIKNAVAKGDVDKALKLLDEAERLGSTSARSTFISSVKGKGEGHHHHHH” the entry was “soluble”; with “MAHHHHHHMTSLHPFEYAFMAGASFSPEERVQLTSSLPLLSVQTKRKNLVLWGKIFGCKADYIIVEAFDDDAVVEPELYHTLDEGRTFSLLGTFSSVFSTCPGYSSCSGLQQAEWKQFMLLGMRGPFFGDPAYEYRVSNHSSSDSAPEIQSVKESVRLALFVEEFDHECRVVPRGAYMKAERQATATIASTTGAEVDAGERAEVRRNTALADFRERRRERCRCGTTTTCVP”, “not soluble”. In the case of “TVPITSAKAAELPPGNYRLVVFELENFQGRRAEFSGECSNLADRGFDRVRSIIVSAGPWVAFEQSNFRGEMFILEKGEYPRWNTWSSSYRSDRLMSFRPIKMDAQEHKISLFEGANFKGNTIEIQGDDAPSLWVYGFSDRVGSVKVSSGTWVGYQYPGYRGYQYLLEPGDFRHWNEWGAFQPQMQSLRRLRDKQWHLEGSFPVLATEPPK” it was “soluble”. With “MAHHHHHHMKRPWGESVGTQSNHTRTDGVQEPSASAELAASANDDTQVRSDGRNVRVRSSGSPRTIDTGNGGGSTVVSPQRQLSDQRLPQASSRHELLEGTSEFLLRTEGNIPCSFGNVPKDSIGYESQCCWNLYNNTGTTHYEPPWRTCLAVEKNRENPYYLPWLDSMKIPPLDELLSKVDERKSKAATSGDVDSGTNDSNVKDGSTKHAD” the entry was “soluble”. On to “MISMKPRYKPDWESLREHTVPKWFDKAKFGIFIHWGIYSVPGWATPTGELGKVPMDAWFFQNPYAEWYENSLRIKESPTWEYHVKTYGENFEYEKFADLFTAEKWDPQEWADLFKKAGAKYVIPTTKHHDGFCLWGTKYTDFNSVKRGPKRDLVGDLAKAVREAGLRFGVYYSGGLDWRFTTEPIRYPEDLSYIRPNTYEYADYAYKQVMELVDLYLPDVLWNDMGWPEKGKEDLKYLFAYYYNKHPEGSVNDRWGVPHWDFKTAEYHVNYPGDLPGYKWEFTRGIGLSFGYNRNEGPEHMLSVEQLVYTLVDVVSKGGNLLLNVGPKGDGTIPDLQKERLLGLGEWLRKYGDAIYGTSVWERCCAKTEDGTEIRFTRKCNRIFVIFLGIPTGEKIVIEDLNLSAGTVRHFLTGERLSFKNVGKNLEITVPKKLLETDSITLVLEAVEEHHHHHH”, for which the “soluble on expression in E. coli” value is “soluble”. With “MKEHHIPKNSIITVAGTVGVGKSTLTKTLAKRLGFKTSLEEVDHNPYLEKFYHDFERWSFHLQIYFLAERFKEQKTIFEAGGGFVQDRSIYEDTGIFAKMHADKGTMSKVDYKTYTSLFEAMVMTPYFPHPDVLIYLEGDLENILNRIEQRGREMELQTSRSYWEEMHTRYENWISGFNACPVLKLRIEDYDLLNDENSIENIVDQIASVIHDNQKKLEHHHHHH” the entry was “not soluble”.

“VTRKSLLERCMEMEKEGYTGCLLSGGMDSRLKVPLDKFKDEIKAIKEKTKLKINAHVGFVDESDLEWLKYIDVVSLDFVGDNEVIKRVYKIDKKVEDYLRVLDLLTENGIRVAPHITIGLDFGKVHWEFKAIDILVNYPIDVLVLDVLIPTPGTEMANVPKVPVDEAIRVVKYAREKFSGELSIGCMRPFGEWRVKFDREAILAGVDRI”: the “soluble on expression in E. coli” value is reported as “not soluble”. In the case of “MKTNVIIDGDACPVVNSVIELTKGTGIFVTILRSFSHFSQQIQPEHVKIVYVDDGPDAVDYKIVELASNNDIVITQDYGLASLLIDKVHTVMHHKGNIYHSNNIQSLLDQRYLNAQIRRRGLEHHHHHH” it was “not soluble”; in that of “MGSDKIHHHHHHMDASKNSDFKDTWLVVPCYNEATVIREVLENALKTFPNIVAVNDGSPDNSAEEIHAAGAHLVNHPVNLGQGAAIQTGIEYARKQPGAKYFVTFDADGQHQVKDVIRMVERLRAEDVDIIVGTRFGRPRQADDQVPLIKRLVLRTVVLLSPKTRRLGLTDAHNGLRVFNQKVAQEMNIRMNGMSHASEIVDQIDERGWRISEEPVDILYTEYSMSKGQSLLNGVNILADGFLARRLP”, “not soluble”. For the sequence “MGSDKIHHHHHHGIKNGLKEEPKINVGIKGGFNSSMYFTSRLELDGERMEDVQNNYKVGYFAAMFFRVHMKRHFIQPEIMYNIYKGEIAFNKNQNKENTLPELAKLNSTIHSLELPILYGYSFVKSRPYGMALFIGPKLEYVWKHKTSEEFEGFGYSGIKEELHPINISSVIGLGVNIANIFFDFRYEIGLTNISKSIIYKKDTDGIMSQEKGIFINRHRNVLSFSLGVIF”, the “soluble on expression in E. coli” value was “not soluble”.
